Data as given in patent US20050003403A1 (IBC PHARMACEUTICALS, published 2005).

T1: carcinoembryonic antigen (CEA) (UniProt P06731 35-685, limits assumed)
T1 construct: Coated on ELISA wells (0.5 ug/well), injected in BIAcore, or mixed in solution for SE-HPLC
T1 sequence (looked up): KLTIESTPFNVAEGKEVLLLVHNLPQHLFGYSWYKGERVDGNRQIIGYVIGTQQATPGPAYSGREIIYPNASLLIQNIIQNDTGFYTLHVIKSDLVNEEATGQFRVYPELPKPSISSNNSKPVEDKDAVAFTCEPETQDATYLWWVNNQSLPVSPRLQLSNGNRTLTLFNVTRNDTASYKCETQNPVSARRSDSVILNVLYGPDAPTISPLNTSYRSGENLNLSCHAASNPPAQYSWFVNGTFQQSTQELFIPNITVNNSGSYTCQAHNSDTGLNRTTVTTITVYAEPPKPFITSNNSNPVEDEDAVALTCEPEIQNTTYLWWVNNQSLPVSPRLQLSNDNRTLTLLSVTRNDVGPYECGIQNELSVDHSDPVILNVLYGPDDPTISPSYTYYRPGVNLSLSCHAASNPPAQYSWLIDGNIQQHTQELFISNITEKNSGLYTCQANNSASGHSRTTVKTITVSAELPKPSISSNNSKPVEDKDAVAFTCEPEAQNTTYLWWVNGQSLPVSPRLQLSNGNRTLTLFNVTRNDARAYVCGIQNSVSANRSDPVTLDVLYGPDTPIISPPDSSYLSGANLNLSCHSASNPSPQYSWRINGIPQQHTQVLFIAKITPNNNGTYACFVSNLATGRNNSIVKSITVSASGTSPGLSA


Key:
[1] = biological target: T1, carcinoembryonic antigen (CEA); assay: competitive ELISA, CEA-coated wells (0.5 ug/well), competitor HRP-conjugated hMN-14 IgG (1 nM)
Description: HRP-conjugated hMN14 IgG (1 nM) was mixed with either BS14HP, BS1.5H (a bispecific diabody, monovalent for CEA and monovalent for HSG, derived from the same variable domains as BS14HP) or hMN14 F(ab′)₂ at concentrations ranging from 1-250 nM, prior to incubation in CEA-coated (0.5 μg/well) wells. The % inhibition is plotted vs. nM concentration of sample.
The CEA binding of BS14HP was analyzed in a competitive ELISA and compared to BS1.5H and hMN-14 F(ab′)₂, which have one and two CEA binding groups, respectively (FIG. 6). HRP-conjugated hMN-14 IgG (1 nM) was mixed with either BS14HP, BS1.5H or hMN-14 F(ab′)₂ at concentrations ranging from 1 to 250 nM, prior to incubation in CEA-coated (0.5 μg/well) wells. The IC₅₀ for BS14HP was 2.7 nM which is close to 2.0 nM for hMN14 F(ab′)₂.

[2] = biological target: T1, carcinoembryonic antigen (CEA); assay: BIAcore, hBS14 captured on HSG sensorchip, then CEA injected

IC50 [1] [nM]	binding result [2]	Binder
2	–	hMN-14 F(ab')2 (other, F(ab')2 of humanized anti-CEA hMN-14, 100 kDa; The VH in the construct ends ...VTVS) VH: EVQLVESGGGVVQPGRSLRLSCSASGFDFTTYWMSWVRQAPGKGLEWIGEIHPDSSTINYAPSLKDRFTISRDNAKNTLFLQMDSLRPEDTGVYFCASLYFGFPWFAYWGQGTPVTVS VL: DIQLTQSPSSLSASVGDRVTITCKASQDVGTSVAWYQQKPGKAPKLLIYWTSTRHTGVPSRFSGSGSGTDFTFTISSLQPEDIATYYCQQYSLYRSFGQGTKVEIKR
10	–	BS1.5H (bispecific antibody) chain 1: MEVQLVESGGDLVKPGGSLKLSCAASGFTFSIYTMSWLRQTPGKGLEWVATLSGDGDDIYYPDSVKGRFTISRDNAKNSLYLQMNSLRAEDTALYYCARVRLGDWDFDVWGQGTTVSVSSGGGGSDIQLTQSPSSLSASVGDRVTITCKASQDVGTSVAWYQQKPGKAPKLLIYWTSTRHTGVPSRFSGSGSGTDFTFTISSLQPEDIATYYCQQYSLYRSFGQGTKVEIKRLEHHHHHH chain 2: MEVQLVESGGGVVQPGRSLRLSCSASGFDFTTYWMSWVRQAPGKGLEWIGEIHPDSSTINYAPSLKDRFTISRDNAKNTLFLQMDSLRPEDTGVYFCASLYFGFPWFAYWGQGTPVTVSGGGGSDIVMTQSPSSLAVSPGERVTLTCKSSQSLFNSRTRKNYLGWYQQKPGQSPKLLIYWASTRESGVPDRFSGSGSGTDFTLTINSLQAEDVAVYYCTQVYYLCTFGAGTKLELKRLEHHHHHH
2.7	–	BS14HP (bispecific antibody, Non-covalent heterodimer with two CEA sites and one HSG site; The alpha-factor signal peptide is removed on secretion; also called bispecific trivalent heterodimer; hMN-14 x hMN-14 x 679 produced in Pichia pastoris) chain 1: EAEAEFMEVQLVESGGDLVKPGGSLKLSCAASGFTFSIYTMSWLRQTPGKGLEWVATLSGDGDDIYYPDSVKGRFTISRDNAKNSLYLQMNSLRAEDTALYYCARVRLGDWDFDVWGQGTTVSVSSGGGGSDIQLTQSPSSLSASVGDRVTITCKASQDVGTSVAWYQQKPGKAPKLLIYWTSTRHTGVPSRFSGSGSGTDFTFTISSLQPEDIATYYCQQYSLYRSFGQGTKVEIKRLEGGGSEVQLVESGGGVVQPGRSLRLSCSASGFDFTTYWMSWVRQAPGKGLEWIGEIHPDSSTINYAPSLKDRFTISRDNAKNTLFLQMDSLRPEDTGVYFCASLYFGFPWFAYWGQGTPVTVSVDHHHHHH chain 2: EAEAEFDIQLTQSPSSLSASVGDRVTITCKASQDVGTSVAWYQQKPGKAPKLLIYWTSTRHTGVPSRFSGSGSGTDFTFTISSLQPEDIATYYCQQYSLYRSFGQGTKVEIKRGGGQFMEVQLVESGGGVVQPGRSLRLSCSASGFDFTTYWMSWVRQAPGKGLEWIGEIHPDSSTINYAPSLKDRFTISRDNAKNTLFLQMDSLRPEDTGVYFCASLYFGFPWFAYWGQGTPVTVSGGGGSDIVMTQSPSSLAVSPGERVTLTCKSSQSLFNSRTRKNYLGWYQQKPGQSPKLLIYWASTRESGVPDRFSGSGSGTDFTLTINSLQAEDVAVYYCTQVYYLCTFGAGTKLELKRLDHHHHHH
–	binds	hBS14 (bispecific antibody, 79.4 kDa heterodimer of polypeptide 1 and polypeptide 2, produced in SP2/0, YB2/0 or NS0 cells; Bivalent for CEA, monovalent for HSG; also called bispecific trivalent heterodimer expressed in myeloma cells; hMN-14 x hMN-14 x 679) chain 1: MEVQLVESGGDLVKPGGSLKLSCAASGFTFSIYTMSWLRQTPGKGLEWVATLSGDGDDIYYPDSVKGRFTISRDNAKNSLYLQMNSLRAEDTALYYCARVRLGDWDFDVWGQGTTVSVSSGGGGSDIQLTQSPSSLSASVGDRVTITCKASQDVGTSVAWYQQKPGKAPKLLIYWTSTRHTGVPSRFSGSGSGTDFTFTISSLQPEDIATYYCQQYSLYRSFGQGTKVEIKRLEGGGSEVQLVESGGGVVQPGRSLRLSCSASGFDFTTYWMSWVRQAPGKGLEWIGEIHPDSSTINYAPSLKDRFTISRDNAKNTLFLQMDSLRPEDTGVYFCASLYFGFPWFAYWGQGTPVTVSVDHHHHHH chain 2: MDIQLTQSPSSLSASVGDRVTITCKASQDVGTSVAWYQQKPGKAPKLLIYWTSTRHTGVPSRFSGSGSGTDFTFTISSLQPEDIATYYCQQYSLYRSFGQGTKVEIKRGGGQFMEVQLVESGGGVVQPGRSLRLSCSASGFDFTTYWMSWVRQAPGKGLEWIGEIHPDSSTINYAPSLKDRFTISRDNAKNTLFLQMDSLRPEDTGVYFCASLYFGFPWFAYWGQGTPVTVSGGGGSDIVMTQSPSSLAVSPGERVTLTCKSSQSLFNSRTRKNYLGWYQQKPGQSPKLLIYWASTRESGVPDRFSGSGSGTDFTLTINSLQAEDVAVYYCTQVYYLCTFGAGTKLELKRLDHHHHHH
